One data set deals with T1, BbLeuDH (Bdellovibrio bacteriovorus, UniProt A0A1Z3N8C0).
T1 construct: gene B9G79_08965
T1 sequence (A0A1Z3N8C0 1-376): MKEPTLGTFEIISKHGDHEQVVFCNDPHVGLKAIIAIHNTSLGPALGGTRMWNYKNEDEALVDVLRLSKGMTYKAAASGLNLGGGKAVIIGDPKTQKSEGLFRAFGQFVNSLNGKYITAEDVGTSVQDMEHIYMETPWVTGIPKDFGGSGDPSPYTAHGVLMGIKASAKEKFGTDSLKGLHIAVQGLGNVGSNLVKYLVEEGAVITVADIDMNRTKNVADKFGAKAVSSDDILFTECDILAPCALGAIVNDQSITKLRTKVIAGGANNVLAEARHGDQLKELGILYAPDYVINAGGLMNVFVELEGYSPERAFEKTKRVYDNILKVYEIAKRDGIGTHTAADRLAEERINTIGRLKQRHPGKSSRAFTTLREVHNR
Briefly: NADH absorbance at […] nm, specific activity. Type of data set: biochemical. To be noted: reductive amination, 2 mM TMP, 0.1 mM NADH, 500 mM NH4Cl-NH3 buffer pH 9.5, 30 °C.

The next data set concerns the target T2, TbLeuDH (Staphylospora marina, UniProt Z9JLC0NN60).
T2 sequence (Z9JLC0NN60 1-365): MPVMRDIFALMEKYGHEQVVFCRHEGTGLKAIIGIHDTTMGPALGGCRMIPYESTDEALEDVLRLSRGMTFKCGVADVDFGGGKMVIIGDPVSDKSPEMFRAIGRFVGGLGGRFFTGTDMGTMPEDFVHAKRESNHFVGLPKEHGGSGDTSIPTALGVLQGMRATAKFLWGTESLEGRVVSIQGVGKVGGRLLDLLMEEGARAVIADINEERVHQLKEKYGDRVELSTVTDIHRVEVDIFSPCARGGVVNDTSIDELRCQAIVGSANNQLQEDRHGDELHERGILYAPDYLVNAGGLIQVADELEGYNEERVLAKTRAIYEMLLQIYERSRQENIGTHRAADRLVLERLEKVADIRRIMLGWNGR
As to the kind of experiment: NADH absorbance at […] nm, specific activity. Type of data set: biochemical. To be noted: reductive amination, 2 mM TMP, 0.1 mM NADH, 500 mM NH4Cl-NH3 buffer pH 9.5, 30 °C.

A further data set deals with T3, CsLeuDH (Caldanaerobacter subterraneus, UniProt U5CQF4).
T3 construct: gene O163_07585
T3 sequence (U5CQF4 1-355): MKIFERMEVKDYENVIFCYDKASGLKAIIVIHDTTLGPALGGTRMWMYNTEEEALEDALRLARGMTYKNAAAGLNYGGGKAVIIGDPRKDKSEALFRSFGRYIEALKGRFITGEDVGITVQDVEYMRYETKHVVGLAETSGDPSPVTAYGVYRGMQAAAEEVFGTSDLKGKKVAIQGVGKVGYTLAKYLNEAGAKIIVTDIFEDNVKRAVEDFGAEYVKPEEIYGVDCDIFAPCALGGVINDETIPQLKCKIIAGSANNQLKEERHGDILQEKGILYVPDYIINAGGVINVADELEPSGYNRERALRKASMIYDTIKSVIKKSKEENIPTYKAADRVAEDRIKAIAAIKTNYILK
Briefly: NADH absorbance at […] nm, specific activity. Format: biochemical. The note with it: reductive amination, 2 mM TMP, 0.1 mM NADH, 500 mM NH4Cl-NH3 buffer pH 9.5, 30 °C.

Substrate in data set [1]: CC(C)(C)C(=O)C(=O)O
As to the kind of experiment: purified protein. The note with it: reductive amination, TMP varied 1-20 mM, 0.3 mM NADH; standard assay 500 mM NH4Cl-NH3 buffer pH 9.5, 30 °C; pH 9.5; 30.0 °C. Type of data set: biochemical, Planifilum fimeticola.

Substrate in data set [2]: CC(C)C[C@H](N)C(=O)O
Briefly: purified protein. Type of data set: biochemical, Planifilum fimeticola. The note with it: oxidative deamination, L-leucine varied 0.1-3 mM, 1 mM NAD+.

Substrate in data set [3]: NC(=O)C1=CN([C@@H]2O[C@H](COP(=O)(O)OP(=O)(O)OC[C@H]3O[C@@H](n4cnc5c(N)ncnc54)[C@H](O)[C@@H]3O)[C@@H](O)[C@H]2O)C=CC1
Briefly: purified protein. Format: biochemical, Planifilum fimeticola. The note with it: reductive amination, NADH varied 0.05-0.35 mM, 40 mM TMP; standard assay 500 mM NH4Cl-NH3 buffer pH 9.5, 30 °C; pH 9.5; 30.0 °C; varied: cofactor.

Substrate in data set [4]: NC(=O)c1ccc[n+]([C@@H]2O[C@H](COP(=O)(O)OP(=O)(O)OC[C@H]3O[C@@H](n4cnc5c(N)ncnc54)[C@H](O)[C@@H]3O)[C@@H](O)[C@H]2O)c1
As to the kind of experiment: purified protein. Format: biochemical, Planifilum fimeticola. The note with it: oxidative deamination, NAD+ varied 0.1-4 mM, 4 mM L-leucine; varied: cofactor.

Broadly, the Km is the concentration of substrate that gives half-maximal velocity. What is called Vmax is the rate approached at saturating substrate. As usually defined, the kcat is the number of substrate molecules converted per active site and unit of time at saturation. Usually kcat/Km stands for the turnover number divided by the Michaelis constant.

With `CC(C)(C)C(=O)C(=O)O` [Trimethylpyruvate], the “NADH absorbance at 340 nm, specific activity” value on BbLeuDH, at TbLeuDH and at CsLeuDH was “All four soluble leucine dehydrogenases have catalytic activity for TMP” in each case.

B1: PfLeuDH (Planifilum fimeticola) (protein)
chain: MKWFDYMERYDYEQLIFCQDKNSGLKAIIAIHDTTLGPALGGVRMWKYDSEEEAIVDALRLARGMTYKAAAAGLNLGGGKTVIIGDPRKDKNEEMFRALGRFIQGLNGRYITAEDVGTTEEDMDIIHQETRFVTGVSPAFGSSGNPSPVTAYGVYRGMKAAAKIAFGSDSLEGKTVAVQGVGSVAYHLCKHLHEEGARLIVTDIVRENVERAVRDFGAESVAPDKIYDVECDIFSPCALGAIINDETLPRLKCRVVAGSANNQLKEERHGDRLEELGIIYVPDYVINAGGLINVADELFGYNRERAMKKVETIYDNVLRVFEIAKRDGIPSYKAADRMAEERIESLTRSRSTFLRNERNVLNMV
As to B1, in “purified protein [1]”, the Michaelis constant (Km) turned out to be 3.08 mM, the Vmax was 58.6 µmol/min/mg, the kcat came out at 39.1 s⁻¹ and the specificity constant (kcat/Km) worked out at 12700 M⁻¹ s⁻¹. In addition, in the data set “purified protein [2]”, the Km amounted to 0.1 mM, the maximum rate (Vmax) was found to be 3.49 µmol/min/mg, the kcat amounted to 2.33 s⁻¹ and the kcat/Km came out at 23300 M⁻¹ s⁻¹. In “purified protein [3]”, the Michaelis constant (Km) is 0.06 mM, the maximum rate (Vmax) is 9.09 µmol/min/mg, the kcat is 6.06 s⁻¹ and the kcat/Km amounted to 101000 M⁻¹ s⁻¹. Moreover, in “purified protein [4]”, the Km worked out at 0.11 mM, the maximum rate (Vmax) is 2.72 µmol/min/mg, the catalytic constant (kcat) was determined as 1.81 s⁻¹ and the catalytic efficiency (kcat/Km) came to 16400 M⁻¹ s⁻¹.
